The chains are these.
B1: MycP5 protease (enzyme)
chain: ISPPTIDPGALPPDGPPGPLAPMKQNAYCTEVGVLPGTDFQLQPKYMEMLNLNEAWQFGRGDGVKVAVIDTGVTPHPRLPRLIPGGDYVMAGGDGLSDCDAHGTLVASMIAAVPANGAVPLPSVPRRPVTIPTTETPPPPQTVTLSPVPPQTVTVIPAPPPEEGVPPGAPVPGPEPPPAPGPQPPAVDRGGGTVTVPSYSGGRKIAPIDNPRNPHPSAPSPALGPPPDAFSGIAPGVEIISIRQSSQAFGLKDPYTGDEDPQTAQKIDNVETMARAIVHAANMGASVINISDVMCMSARNVIDQRALGAAVHYAAVDKDAVIVAAAGDGSKKDCKQNPIFDPLQPDDPRAWNAVTTVVTPSWFHDYVLTVGAVDANGQPLSKMSIAGPWVSISAPGTDVVGLSPRDDGLINAIDGPDNSLLVPAGTSFSAAIVSGVAALVRAKFPELSAYQIINRLIHTARPPARGVDNQVGYGVVDPVAALTWDVPKGPAEPPKQLSAPLVVPQPPAPRDMVPIWVAAGGLAGALLIGGAVFGTATLMRRSRKQQ
notes: also called mycosin
B2: EccC5 (natural protein)
chain: MKRGFARPTPEKPPVIKPENIVLSTPLSIPPPEGKPWWLIVVGVVVVGLLGGMVAMVFASGSHVFGGIGSIFPLFMMVGIMMMMFRGMGGGQQQMSRPKLDAMRAQFMLMLDMLRETAQESADSMDANYRWFHPAPNTLAAAVGSPRMWERKPDGKDLNFGVVRVGVGMTRPEVTWGEPQNMPTDIELEPVTGKALQEFGRYQSVVYNLPKMVSLLVEPWYALVGEREQVLGLMRAIICQLAFSHGPDHVQMIVVSSDLDQWDWVKWLPHFGDSRRHDAAGNARMVYTSVREFAAEQAELFAGRGSFTPRHASSSAQTPTPHTVIIADVDDPQWEYVISAEGVDGVTFFDLTGSSMWTDIPERKLQFDKTGVIEALPRDRDTWMVIDDKAWFFALTDQVSIAEAEEFAQKLAQWRLAEAYEEIGQRVAHIGARDILSYYGIDDPGNIDFDSLWASRTDTMGRSRLRAPFGNRSDNGELLFLDMKSLDEGGDGPHGVMSGTTGSGKSTLVRTVIESLMLSHPPEELQFVLADLKGGSAVKPFAGVPHVSRIITDLEEDQALMERFLDALWGEIARRKAICDSAGVDDAKEYNSVRARMRARGQDMAPLPMLVVVIDEFYEWFRIMPTAVDVLDSIGRQGRAYWIHLMMASQTIESRAEKLMENMGYRLVLKARTAGAAQAAGVPNAVNLPAQAGLGYFRKSLEDIIRFQAEFLWRDYFQPGVSIDGEEAPALVHSIDYIRPQLFTNSFTPLEVSVGGPDIEPVVAQPNGEVLESDDIEGGEDEDEEGVRTPKVGTVIIDQLRKIKFEPYRLWQPPLTQPVAIDDLVNRFLGRPWHKEYGSACNLVFPIGIIDRPYKHDQPPWTVDTSGPGANVLILGAGGSGKTTALQTLICSAALTHTPQQVQFYCLAYSSTALTTVSRIPHVGEVAGPTDPYGVRRTVAELLALVRERKRSFLECGIASMEMFRRRKFGGEAGPVPDDGFGDVYLVIDNYRALAEENEVLIEQVNVIINQGPSFGVHVVVTADRESELRPPVRSGFGSRIELRLAAVEDAKLVRSRFAKDVPVKPGRGMVAVNYVRLDSDPQAGLHTLVARPALGSTPDNVFECDSVVAAVSRLTSAQAPPVRRLPARFGVEQVRELASRDTRQGVGAGGIAWAISELDLAPVYLNFAENSHLMVTGRRECGRTTTLATIMSEIGRLYAPGASSAPPPAPGRPSAQVWLVDPRRQLLTALGSDYVERFAYNLDGVVAMMGELAAALAGREPPPGLSAEELLSRSWWSGPEIFLIVDDIQQLPPGFDSPLHKAVPFVNRAADVGLHVIVTRTFGGWSSAGSDPMLRALHQANAPLLVMDADPDEGFIRGKMKGGPLPRGRGLLMAEDTGVFVQVAATEVRR
notes: also called EccC5 ATPase; not shown: TwinStrep, C-terminal, kept

What all share (experiment): cryo-EM structure
The series “cryo-EM structure” deals with the molecule itself.
The target in the series “EccC5” is B2. The note with it: both partners purified.
For the series “MycP5 protease”, the target named is B1. As to conditions: both partners purified.

As to B1, in “cryo-EM structure”, the “stoichiometry N” value worked out at 3.

Consider B2, for which the binding result in the series “cryo-EM structure” is reported as “binds”.

B3: EccB5 (natural protein)
chain: MAEESRGQRGSGYGLGLSTRTQVTGYQFLARRTAMALTRWRVRMEIEPGRRQTLAVVASVSAALVICLGALLWSFISPSGQLNESPIIADRDSGALYVRVGDRLYPALNLASARLITGRPDNPHLVRSSQIATMPRGPLVGIPGAPSSFSPKSPPASSWLVCDTVATSSSIGSLQGVTVTVIDGTPDLTGHRQILSGSDAVVLRYGGDAWVIREGRRSRIEPTNRAVLLPLGLTPEQVSQARPMSRALFDALPVGPELLVPEVPNAGGPATFPGAPGPIGTVIVTPQISGPQQYSLVLGDGVQTLPPLVAQILQNAGSAGNTKPLTVEPSTLAKMPVVNRLDLSAYPDNPLEVVDIREHPSTCWWWERTAGENRARVRVVSGPTIPVAATEMNKVVSLVKADTSGRQADQVYFGPDHANFVAVTGNNPGAQTSESLWWVTDAGARFGVEDSKEARDALGLTLTPSLAPWVALRLLPQGPTLSRADALVEHDTLPMDMTPAELVVPK
notes: also called inner EccB5; outer EccB5
Consider B3, for which the binding result with EccC5 and with MycP5 protease was “binds” each time. For the same molecule, the “stoichiometry N” value in the series “cryo-EM structure” is 6.

(Values after PMC8131196, “Structure and dynamics of a mycobacterial type VII secretion system” (Nature, 2021).)
